Assay [1] addresses T1, human NPRA on HEK293 cells bound to ANP (human, UniProt P01160 124-151).
T1 sequence: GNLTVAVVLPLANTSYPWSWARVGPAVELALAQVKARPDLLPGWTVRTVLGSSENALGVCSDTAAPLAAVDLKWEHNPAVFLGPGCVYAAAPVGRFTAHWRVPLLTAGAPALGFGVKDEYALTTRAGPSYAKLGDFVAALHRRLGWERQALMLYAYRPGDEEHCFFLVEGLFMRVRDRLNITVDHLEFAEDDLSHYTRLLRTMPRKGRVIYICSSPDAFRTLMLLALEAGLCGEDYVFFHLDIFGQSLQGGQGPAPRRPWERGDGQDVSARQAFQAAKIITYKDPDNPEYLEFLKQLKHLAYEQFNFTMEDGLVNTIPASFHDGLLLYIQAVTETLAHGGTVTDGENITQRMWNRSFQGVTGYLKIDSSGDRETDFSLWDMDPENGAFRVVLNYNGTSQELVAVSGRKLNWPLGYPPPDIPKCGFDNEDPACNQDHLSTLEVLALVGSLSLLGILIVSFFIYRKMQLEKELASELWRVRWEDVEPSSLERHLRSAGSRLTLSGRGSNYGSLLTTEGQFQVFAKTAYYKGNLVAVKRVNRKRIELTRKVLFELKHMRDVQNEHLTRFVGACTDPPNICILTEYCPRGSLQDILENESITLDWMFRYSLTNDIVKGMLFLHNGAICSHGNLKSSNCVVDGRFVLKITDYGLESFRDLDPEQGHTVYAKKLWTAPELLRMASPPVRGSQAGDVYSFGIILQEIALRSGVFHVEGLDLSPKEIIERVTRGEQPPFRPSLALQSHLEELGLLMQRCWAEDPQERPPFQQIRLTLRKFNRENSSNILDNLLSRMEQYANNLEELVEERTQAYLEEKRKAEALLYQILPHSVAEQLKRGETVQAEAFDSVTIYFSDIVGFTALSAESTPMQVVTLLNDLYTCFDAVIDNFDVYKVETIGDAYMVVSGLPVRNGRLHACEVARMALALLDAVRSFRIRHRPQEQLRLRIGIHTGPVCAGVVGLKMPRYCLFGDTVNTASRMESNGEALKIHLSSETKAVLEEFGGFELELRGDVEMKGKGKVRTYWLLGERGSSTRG
T1 sequence (peptide): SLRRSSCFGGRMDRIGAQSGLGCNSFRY
Put plainly: cell-based or functional assay.

Assay [2] deals with T2, human NPRC on HEK293 cells in the presence of ANP (human, UniProt P17342 27-541; P01160 124-151).
T2 construct: whole, on cells;mature; also called HEK NPRC cells + 100 nM ANP
T2 sequence (looked up): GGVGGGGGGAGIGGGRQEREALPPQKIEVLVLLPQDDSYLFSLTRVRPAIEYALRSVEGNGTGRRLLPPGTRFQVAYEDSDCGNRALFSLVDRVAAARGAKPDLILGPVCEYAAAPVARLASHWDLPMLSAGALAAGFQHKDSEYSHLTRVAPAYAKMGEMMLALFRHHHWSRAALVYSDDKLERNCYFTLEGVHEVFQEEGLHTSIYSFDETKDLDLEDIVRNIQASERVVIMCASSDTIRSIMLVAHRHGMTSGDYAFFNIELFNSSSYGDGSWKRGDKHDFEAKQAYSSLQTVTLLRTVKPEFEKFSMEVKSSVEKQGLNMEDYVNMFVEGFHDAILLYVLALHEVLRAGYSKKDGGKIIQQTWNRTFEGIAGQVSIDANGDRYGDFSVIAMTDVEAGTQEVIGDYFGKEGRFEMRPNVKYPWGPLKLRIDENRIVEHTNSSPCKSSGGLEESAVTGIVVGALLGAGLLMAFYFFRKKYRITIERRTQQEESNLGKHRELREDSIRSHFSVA
T2 sequence (peptide, looked up): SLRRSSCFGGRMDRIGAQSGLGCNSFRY
Put plainly: FACS, HEK NPRC cells with 100 nM ANP. On the technique in general: In flow cytometry, cells or beads pass a laser one at a time.
Procedure: (§1) HEK NPRA cells are detached with Accutase (PAA Laboratories GmbH, Cat. No. L11-007, Austria), harvested by centrifugation (900 rpm, 4 minutes) and resuspended in FACS buffer (PBS/3% FCS/0.02% NaN3) to a final concentration of 10⁶ cells/ml. 100 μl of the cell suspension is transferred to each well of a 96 round bottom plate (TC Microwell 96U, Nunc). […] Cells are washed in 150 μl of FACS buffer, pelleted and resuspended in 50 μl of the solution containing the primary antibody comprising a BEL extract of Fabs, a diluted BEL extract or purified antibody diluted in FACS buffer and incubated on ice for 30 min. Cells are washed again in FACS buffer and resuspended in 50 μl of FACS buffer containing the secondary antibody (R-Phycoerythrin-conjugated Affipure F(ab′)₂ Fragment Goat Anti-Human IgG, Dianova) and incubated on ice for 45 min. Cells are washed twice with FACS buffer and resuspended in 200 μl of FACS buffer for analysis in the FACS Array (BD Biosciences).

Assay [3] concerns the target T3, NPRA-Fc fusion protein bound to ANP (human, UniProt P01160 124-151).
T3 construct: mature; Receptor-ligand complex; 'human ANP' is stated for Biacore, plain 'ANP' for ELISA and HXMS; also called NPRA-Fc+ANP
Briefly: SPR (Biacore 3000), NPRA-Fc amine-coupled on CM5, analyte with 100 nM human ANP.

The target in assay [4] is T4, NPRA-Fc fusion protein bound to urodilatin (human, UniProt P01160 120-151).
T4 construct: Receptor-ligand complex; also called NPRA-Fc in the presence of urodilatin
Briefly: SPR (Biacore 3000), NPRA-Fc amine-coupled on CM5, IgG with 100 nM human urodilatin. (In general: Surface plasmon resonance follows binding to a sensor surface in real time, without labels.)

The target in assay [5] is T5, NPRA-Fc fusion protein bound to BNP (human, UniProt P16860 103-134).
T5 construct: mature; Receptor-ligand complex; also called NPRA-Fc in the presence of BNP
Put plainly: SPR (Biacore 3000), NPRA-Fc amine-coupled on CM5, IgG with 100 nM human BNP.
Procedure: In another assay, the purified human NPRA-Fc fusion protein construct is used to develop a surface plasmon resonance (BIAcore) assay for determining affinity and kinetic constants for the antibodies. NPRA-Fc in 10 mM sodium acetate buffer, pH 5.5 is immobilized on a CM5 chip in a Biacore 3000 instrument (GE Healthcare, Biacore, Inc.) through amine coupling at a density of 1000 RU. […] The collected association and dissociation data from each experiment is globally fitted with the association (kₐ) and dissociation (kd) rates fit simultaneously.

Assay [6] concerns the target T1, human NPRA on HEK293 cells bound to ANP. Put plainly: cell-based or functional assay. The source holds these as a separate data set.
The target is the same in assay [7]. Briefly: FACS, IgG4_Pro on HEK NPRA cells in the presence of 100 nM ANP.
Procedure: as §1
Assay [8] addresses T6, human NPRC on HEK293 cells in the presence of BNP (human, UniProt P17342 27-541; P16860 103-134).
T6 construct: whole, on cells;mature; also called HEK NPRC cells + 100 nM BNP
T6 sequence (looked up): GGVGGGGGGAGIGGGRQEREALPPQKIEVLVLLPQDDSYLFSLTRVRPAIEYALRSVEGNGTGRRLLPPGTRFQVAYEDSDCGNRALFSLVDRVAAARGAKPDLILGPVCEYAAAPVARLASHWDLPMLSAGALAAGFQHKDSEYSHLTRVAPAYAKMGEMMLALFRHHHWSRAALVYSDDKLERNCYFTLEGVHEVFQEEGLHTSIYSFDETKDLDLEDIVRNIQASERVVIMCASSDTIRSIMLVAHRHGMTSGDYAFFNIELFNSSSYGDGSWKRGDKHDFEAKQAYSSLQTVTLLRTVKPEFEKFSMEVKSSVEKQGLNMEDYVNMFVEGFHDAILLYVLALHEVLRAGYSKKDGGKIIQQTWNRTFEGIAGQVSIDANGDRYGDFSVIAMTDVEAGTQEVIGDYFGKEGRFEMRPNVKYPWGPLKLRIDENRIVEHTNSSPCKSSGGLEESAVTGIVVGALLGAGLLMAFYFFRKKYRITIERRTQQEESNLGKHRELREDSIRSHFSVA
T6 sequence (peptide, looked up): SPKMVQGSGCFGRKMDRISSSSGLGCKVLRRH
Briefly: FACS, HEK NPRC cells with 100 nM BNP.
Procedure: as §1

Assay [9] addresses T7, human NPRC on HEK293 cells, without added ligand (human, UniProt P17342 27-541).
T7 construct: whole, on cells; also called HEK NPRC cells; natriuretic peptide receptor C
T7 sequence (looked up): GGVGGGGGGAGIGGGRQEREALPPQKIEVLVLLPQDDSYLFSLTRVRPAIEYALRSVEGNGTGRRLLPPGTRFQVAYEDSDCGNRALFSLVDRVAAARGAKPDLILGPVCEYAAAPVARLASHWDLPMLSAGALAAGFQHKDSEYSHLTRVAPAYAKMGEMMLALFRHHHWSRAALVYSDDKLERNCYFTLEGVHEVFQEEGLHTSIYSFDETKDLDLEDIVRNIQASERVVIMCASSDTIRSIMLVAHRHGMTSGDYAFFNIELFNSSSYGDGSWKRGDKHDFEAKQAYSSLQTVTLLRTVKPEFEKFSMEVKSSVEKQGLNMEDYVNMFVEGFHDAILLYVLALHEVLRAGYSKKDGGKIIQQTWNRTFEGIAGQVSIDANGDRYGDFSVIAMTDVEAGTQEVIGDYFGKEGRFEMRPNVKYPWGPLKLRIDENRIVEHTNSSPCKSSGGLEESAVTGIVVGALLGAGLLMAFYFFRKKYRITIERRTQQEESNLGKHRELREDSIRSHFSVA
Put plainly: FACS, HEK NPRC cells without ligand.
Procedure: as §1

Bounds are passed on as bounds.

B1: 5502 IgG4_Pro (antibody, V domains shown)
VH: QVQLQQSGPGLVKPSQTLSLTCAISGDSVSSRSASWSWIRQSPGRGLEWLGRIYYRSKWYNDYAVSVKSRITINPDTSKNQFSLQLNSVTPEDTAVYYCARMDVPSFRYFDVWGQGTLVTVSS
VL: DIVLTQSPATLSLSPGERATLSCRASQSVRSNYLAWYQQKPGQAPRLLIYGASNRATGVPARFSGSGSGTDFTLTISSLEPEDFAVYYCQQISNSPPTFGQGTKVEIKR
notes: Human IgG4_Pro
One may read the Kd as the constant that tells how readily two partners part at equilibrium. The low end stands for a tighter complex, the high end for a looser complex. What is called koff is a measure of how fast the partners let go of each other. The low end stands for a long-lived complex, the high end for a short-lived complex. For orientation: kon means a measure of how fast the partners come together. For orientation: EC50 means the concentration needed to bring the measured effect to its halfway point. As for B1, the “fold increase in the potency of ANP (cGMP, HEK NPRA cells, 200 nM IgG4_Pro)” value (“fold increase in the potency of ANP” below) in assay [1] is ≤ 10 fold. Besides, the binding result in assay [2], in assay [8] and in assay [9] was “no binding (tested: 20 nM)” in each case. For the same molecule, the Kd amounted to 0.172 nM in [3], 0.211 nM in assay [4] and 0.413 nM in assay [5]. Further, the koff was 0.000283 s⁻¹ in assay [3], 0.000448 s⁻¹ in assay [4] and 0.000563 s⁻¹ in assay [5]. For the same molecule, the kon in assay [3] came to 1.65e+06 M⁻¹ s⁻¹; in assay [4], 2.12e+06 M⁻¹ s⁻¹; in assay [5], 1.36e+06 M⁻¹ s⁻¹. Besides, in assay [6], the “cGMP EC50 (nM), titration of the antibody on HEK NPRA cells with 200 pM ANP” value (shortened to “cGMP EC50 (nM), titration”) amounted to 2.1 nM. Also, in [7], the EC50 was found to be 0.68 nM.

B2: 5591 IgG4_Pro (antibody, V domains shown)
VH: QVQLQQSGPGLVKPSQTLSLTCAISGDSVSSRSASWSWIRQSPGRGLEWLGRTYYRSHWYYEYAQSVKSRITINPDTSKNQFSLQLNSVTPEDTAVYYCARMDVPSFRYFDVWGQGTLVTVSS
VL: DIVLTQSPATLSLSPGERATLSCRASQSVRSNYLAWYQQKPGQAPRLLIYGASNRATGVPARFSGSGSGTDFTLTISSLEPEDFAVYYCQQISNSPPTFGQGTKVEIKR
On to B2, for which the “fold increase in the potency of ANP” value in assay [1] is ≤ 10 fold. The binding result in [2], in assay [8] and in assay [9] was “no binding (tested: 20 nM)” each time. Besides, the figures for the Kd in assay [3], in assay [4] and in [5] were 0.0275 nM, 0.0928 nM and 0.38 nM, respectively. For the same molecule, the koff in [3] amounted to 0.000107 s⁻¹; in assay [4], 0.000238 s⁻¹; in assay [5] it was 0.00102 s⁻¹. Further, the kon in assay [3] worked out at 3.88e+06 M⁻¹ s⁻¹; in assay [4] it was 2.56e+06 M⁻¹ s⁻¹; in assay [5], 2.69e+06 M⁻¹ s⁻¹. Besides, the “cGMP EC50 (nM), titration” value in [6] was found to be 0.5 nM. Moreover, the EC50 in assay [7] came to 0.73 nM.

B3: 5592 IgG4_Pro (antibody, V domains shown)
VH: QVQLQQSGPGLVKPSQTLSLTCAISGDSVSSRSASWSWIRQSPGRGLEWLGRTYYRSHWYYEYAQSVKSRITINPDTSKNQFSLQLNSVTPEDTAVYYCARMDVPSFRYFDVWGQGTLVTVSS
VL: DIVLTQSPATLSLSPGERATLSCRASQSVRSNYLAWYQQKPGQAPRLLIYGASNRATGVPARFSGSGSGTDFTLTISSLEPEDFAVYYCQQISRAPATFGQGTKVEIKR
Turning to B3, the “fold increase in the potency of ANP” value in [1] is ≤ 10 fold. Also, the binding result in assay [2], in [8] and in assay [9] was “no binding (tested: 20 nM)” throughout. Moreover, the Kd came out at 0.011 nM in assay [3], 0.0251 nM in assay [4] and 0.0459 nM in assay [5]. The koff came out at 0.000106 s⁻¹ in assay [3], 9.94e-05 s⁻¹ in [4] and 0.00034 s⁻¹ in assay [5]. Also, the results for the kon in assay [3], in assay [4] and in assay [5] were 9.59e+06 M⁻¹ s⁻¹, 3.96e+06 M⁻¹ s⁻¹ and 7.42e+06 M⁻¹ s⁻¹, respectively. Further, the “cGMP EC50 (nM), titration” value in [6] worked out at 1 nM. The EC50 in assay [7] came out at 0.52 nM.

These data come from patent publication US20160168251A1 (MorphoSys, published 2016).
